Assay results as given in patent publication US6462177B1, “Mammalian blood loss-induced gene, kd312” (Amgen Inc., priority 1998, dated 2002).
“Also recorded” adds a separate entry of the source.

How the values were obtained:
293 cells = assay: Establishment of 293 cell lines constitutively expressing genes from pCEP4; format: cell-based, human; details: no stable cell line could be established
Method: (§1) Transfections of 293 cells with the plasmid pCEP4 or its derivatives were performed by using LipofectAMINE Reagent and the protocol supplied with it by Gibco BRL. Transfected cells were grown in Gibco BRL D-MEM high-glucose medium that lacked sodium pyruvate and was supplemented with 10% FBS and 300 μg/ml hygromycin. Fluorescence-activated cell sorting (FACS) for apoptosis assays was performed according to Polverino and Patterson, J. Biol. Chem. 272, No. 11: 7013-7021 (1997).
(§2) Involvement of kd312 in apoptosis was tested in the human embryonal kidney cell line 293 following expression of this gene from the episomal expression vector pCEP4. Derivatives of 293 cells constitutively expressing human kd312, bcl-2, R-ras, and murine H-ras genes from pCEP4 were established. Expression of each gene was confirmed by Western blotting experiments (data not shown). […] It has been shown that R-ras promotes apoptosis following expression in 32, D3, FL5.12, and NIH3T3 cells. […] The levels of inhibition following expression of the ras genes, particularly R-ras, were unmistakably lower than those resulting from the expression of kd312.

[1] = tested on: human embryonal kidney cell line 293; assay: FACS analysis of geranylgeraniol-induced apoptosis in 293 cells transfected with various genes; format: cell-based; details: 293 cells constitutively expressing the gene from pCEP4; 10 μM geranylgeraniol; propidium iodide FACS
Method: FIG. 4 depicts inhibition of apoptosis by human kd312 as compared to other proteins (as indicated). Shown graphs are the results from FACS analysis of apoptosis induced by geranylgeraniol in 293 cells transfected with various genes. Cells were treated with 10 μM geranylgeraniol for various times as indicated. Subsequently, the cells were washed and stained with 50 μg/ml propidium iodide in 3.8 mM sodium citrate pH 7.0 and analyzed using a FACScan flow cytometer. The extent of apoptosis was determined by measuring the proportion of cells displaying hypo-diploid DNA content. The data represent the average of 2 independent experiments.
as §1, §2

bcl-2 = target: T1, bcl-2 (Homo sapiens, UniProt P10415); assay: Yeast two-hybrid interaction test; format: binding; details: yeast two-hybrid system
T1 construct: expressed in transfected cells
From the text: (§3) To define the way that kd312 exerts its function we have tested its interaction with human Raf, H-Ras, and bcl-2 using a yeast two-hybrid system. […] Work is in progress to search for kd312 interacting proteins using the same yeast system.

human Raf = target: T2, human Raf (Homo sapiens, UniProt P04049); assay: Yeast two-hybrid interaction test; format: binding; details: yeast two-hybrid system
T2 construct: expressed in transfected cells
From the text: as §3

H-Ras = target: T3, H-Ras (Homo sapiens, UniProt P01112); assay: Yeast two-hybrid interaction test; format: binding; details: yeast two-hybrid system
T3 construct: expressed in transfected cells
From the text: as §3

T1 sequence (P10415 whole entry): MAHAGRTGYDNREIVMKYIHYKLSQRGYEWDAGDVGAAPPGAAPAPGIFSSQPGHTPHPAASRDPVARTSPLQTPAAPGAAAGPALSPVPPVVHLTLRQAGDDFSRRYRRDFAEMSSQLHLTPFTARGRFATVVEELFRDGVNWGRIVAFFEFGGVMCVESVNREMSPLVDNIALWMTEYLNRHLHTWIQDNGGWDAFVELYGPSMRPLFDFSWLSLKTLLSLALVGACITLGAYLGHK

interaction with bcl-2 (bcl-2) | interaction with human Raf (human Raf) | interaction with H-Ras (H-Ras) | Molecule | outcome of gene expression in 293 cells (293 cells) | effect on geranylgeraniol-induced apoptosis (proportion of cells with hypo-diploid DNA content) [1]
 |  |  | bax: murine bax gene product; expression in 293 cells led to cell death | invariably led to cell death | 
 |  |  | bcl-2: bcl-2 gene product, a potent apoptosis inhibitor, expressed from pCEP4 in 293 cells [reference compound] |  | protected 293 cells from geranylgeraniol-induced apoptosis
No interaction | No interaction | No interaction | kd312: human kd312 protein (281 amino acids), blood loss-induced, distantly related to the Ras family, expressed from cDNA (protein) MKLAAMIKKMCPSDSELSIPAKNCYRMVILGSSKVGKTAIVSRFLTGRFEDAYTPTIEDFHRKFYSIRGEVYQLDILDTSGNHPFPAMRRLSILTGDVFILVFSLDNRDSFEEVQRLRQQILDTKSCLKNKTKENVDVPLVICGNKGDRDFYREVDQREIEQLVGDDPQRCAYFEISAKKNSSLDQMFRALFAMAKLPSEMSPDLHRKVSVQYCDVLHKKALRNKKLLRAGSGGGGGDPGDAFGIVAPFARRPSVHSDLMYIREKASAGSQAKDKERCVIS |  | protects the cells from apoptosis; also recorded: protected 293 cells from geranylgeraniol-induced apoptosis; also recorded: protects 293 cells from chemical-induced apoptosis
 |  |  | R-ras: human R-ras gene product of the Ras family, expressed from pCEP4 in 293 cells (protein, UniProt P10301 1-215, looked up) Ras-related protein R-Ras: MSSGAASGTGRGRPRGGGPGPGDPPPSETHKLVVVGGGGVGKSALTIQFIQSYFVSDYDPTIEDSYTKICSVDGIPARLDILDTAGQEEFGAMREQYMRAGHGFLLVFAINDRQSFNEVGKLFTQILRVKDRDDFPVVLVGNKADLESQRQVPRSEASAFGASHHVAYFEASAKLRLNVDEAFEQLVRAVRKYQEQELPPSPPSAPRKKGGGCPC |  | inhibited apoptosis
